Results reported in US20160017037A1 (GlaxoSmithKline, published 2016).
Several values for one entry are separate records, joined by “and”; a condition that tells them apart may be missing. Equal values may be shown once.

T1: Human LAG-3 on cells (human LAG-3 expressing EL4 cells; activated human CD3+ T cells) (human, UniProt P18627 23-525)
T1 sequence (looked up): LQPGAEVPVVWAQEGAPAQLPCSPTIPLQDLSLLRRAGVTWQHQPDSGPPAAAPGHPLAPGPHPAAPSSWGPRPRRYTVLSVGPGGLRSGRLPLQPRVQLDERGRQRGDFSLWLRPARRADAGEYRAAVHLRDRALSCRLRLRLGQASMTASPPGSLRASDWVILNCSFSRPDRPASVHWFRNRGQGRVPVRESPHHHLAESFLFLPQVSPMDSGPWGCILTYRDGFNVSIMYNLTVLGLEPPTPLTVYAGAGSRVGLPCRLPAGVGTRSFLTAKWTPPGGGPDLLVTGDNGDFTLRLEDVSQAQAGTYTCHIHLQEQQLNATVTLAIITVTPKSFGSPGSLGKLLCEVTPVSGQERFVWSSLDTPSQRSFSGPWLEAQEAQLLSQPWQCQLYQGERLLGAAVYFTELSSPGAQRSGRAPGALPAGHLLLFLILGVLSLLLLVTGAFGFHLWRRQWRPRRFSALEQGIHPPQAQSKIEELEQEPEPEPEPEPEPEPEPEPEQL

T2: Fc-tagged recombinant soluble LAG-3 (IMP321) (human, UniProt P18627 23-434)
T2 construct: also called LAG3-Ig molecule IMP321; recombinant sLAG-3; not shown: Fc / Ig part
T2 sequence (looked up): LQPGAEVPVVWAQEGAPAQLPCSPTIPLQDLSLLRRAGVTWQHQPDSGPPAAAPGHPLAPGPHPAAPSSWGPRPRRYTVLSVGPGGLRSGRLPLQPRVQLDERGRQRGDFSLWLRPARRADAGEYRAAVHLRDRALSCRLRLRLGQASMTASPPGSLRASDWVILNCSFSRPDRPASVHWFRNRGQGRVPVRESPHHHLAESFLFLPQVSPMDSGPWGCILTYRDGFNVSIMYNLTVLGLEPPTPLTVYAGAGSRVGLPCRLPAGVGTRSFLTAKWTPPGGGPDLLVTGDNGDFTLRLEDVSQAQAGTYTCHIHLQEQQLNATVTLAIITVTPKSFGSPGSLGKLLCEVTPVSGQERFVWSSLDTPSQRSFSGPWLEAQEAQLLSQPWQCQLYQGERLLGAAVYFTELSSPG

B1: H5L7BW (antibody, human IgG1, kappa)
heavy: not shown
light: DIQMTQSPSSLSASVGDRVTITCKSSQSLLNPSNQKNYLAWYQQKPGKAPKLLVYFASTRDSGVPSRFSGSGSGTDFTLTISSLQPEDFATYYCLQHFGTPPTFGQGTKLEIKRTVAAPSVFIFPPSDEQLKSGTASVVCLLNNFYPREAKVQWKVDNALQSGNSQESVTEQDSKDSTYSLSSTLTLSKADYEKHKVYACEVTHQGLSSPVTKSFNRGEC
modifications: afucosylated: no fucose on the core carbohydrate structure attached to Asn297
notes: Same plasmids as H5L7, expressed in the BioWa POTELLIGENT (FUT8 knock-out CHO) cell line; also called afucosylated antibody H5L7BW; afucosylated H5L7
B2: H5L7 (antibody, human IgG1, kappa)
heavy: not shown
light: B1 light
notes: Humanised IgG1/kappa of A9H12 (IMP731); also called fucosylated H5L7; non-ADCC enhanced variant H5L7

Tests used:
[1] = biological target: T1, Human LAG-3 on cells (human LAG-3 …); assay: cell-based or functional assay
[2] = biological target: T3, recombinant soluble human FcγRIIIa V158 (human, UniProt P08637 17-208); assay: SPR ProteOn XPR36, His-tagged receptor captured on anti-poly-histidine IgG, equilibrium model
T3 construct: also called FcγRIIIa valine V158; CD16
T3 sequence (P08637 17-208 F176V limits assumed): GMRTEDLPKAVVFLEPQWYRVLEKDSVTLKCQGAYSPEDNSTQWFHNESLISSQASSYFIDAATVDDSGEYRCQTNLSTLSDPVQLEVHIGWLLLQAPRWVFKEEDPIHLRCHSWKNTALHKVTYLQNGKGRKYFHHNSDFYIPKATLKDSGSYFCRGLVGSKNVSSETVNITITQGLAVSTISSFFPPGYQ
Description: (§1) A goat anti-poly-histidine IgG was immobilised on a GLM biosensor chip by primary amine coupling. This surface was used as a capture surface for the poly-histidine tagged human Fc gamma receptors. […] The goat anti-poly-histidine IgG surface was regenerated with 100 mM phosphoric acid between interactions. The run was carried out on the ProteOn XPR36 Protein Array Interaction System at 25° C. and using HBS-EP as running buffer. Data was analysed for each receptor separately, setting a global R-max and using the Equilibrium Model inherent to the ProteOn's analysis software. Control molecules were run at the beginning and the end of the set of samples to be tested to ensure comparability of results. Data was compared from two experiments and hybrid control antibodies used as controls between experiments.

[3] = biological target: T4, recombinant soluble human FcγRIIIa F158 (human, UniProt P08637 17-208); assay: as above
T4 construct: also called FcγRIIIa phenylalanine F158; CD16
T4 sequence (P08637 17-208 limits assumed): as the sequence (P08637 17-208 F176V limits assumed) above, with V160F counted along it
Description: as §1

[4] = biological target: T2, Fc-tagged recombinant soluble LAG-3 …; assay: SPR Biacore 3000, off-rate comparison with IMP731, IMP321 analyte at 64 nM
Description: The binding kinetics of the purified antibodies for a sLAG-3 molecule were assessed by SPR using a Biacore™ 3000. A goat anti-human kappa antibody (Southern Biotech, Catalogue No. 2060-01) was immobilised on a CM5 chip by primary amine coupling. Humanised anti-LAG3 antibodies were captured on this surface and the LAG3-Ig molecule IMP321 (Chrystelle Brignone, Caroline Grygar, Manon Marcu, Knut Schakel, Frederic Triebel, The Journal of Immunology, 2007, 179: 4202-4211) used as the analyte at 64 nM with a buffer injection (i.e. 0 nM) used to double reference the binding curves. Regeneration was with 10 mM Glycine, pH1.5. The run was carried out on the Biacore™ 3000, using HBS-EP as running buffer and at 25° C. Sensorgrams were normalised for binding at maximal association and off-rates compared against IMP731 by visual inspection of the sensorgram profiles.

Binder	EC50 of depletion of antigen specific CD4 T cells by ADCC (primary human T cells, autologous NK cells, 18 h) [1]	EC50 of depletion of antigen specific LAG-3 positive CD8 T cells by ADCC [1]	fold improvement in affinity against H5L7 [2]	fold improvement in affinity against H5L7 [3]	Rank order of off-rates [4]
B1	14 µg/mL and 3.4 ng/mL	122 µg/mL and 0.0175 µg/mL	~10 fold	~10 fold	–
B2	–	–	–	–	1
